Here are results for two proteins from patent publication US20200096514.

One data set has as its target T1, LAS-Q (not fully specified).
T1 chain: GLGGGAGK

A further data set deals with T2, ELA-Q (not fully specified).
T2 chain: GAAFAGK

B1: recombinant mouse neutrophil elastase (protein)
chain: SEIVGGRPARPHAWPFMASLQRRGGHFCGATLIARNFVMSAAHCVNGLNFRSVQVVLGAHDLRRQERTRQTFSVQRIFENGFDPSQLLNDIVIIQLNGSATINANVQVAQLPAQGQGVGDRTPCLAMGWGRLGTNRPSPSVLQELNVTVVTNMCRRRVNVCTLVPRRQAGICFGDSGGPLVCNNLVQGIDSFIRGGCGSGLYPDAFAPVAEFADWINSIIRSHNDHLLTHPKDREGRTN
As for B1, the “reversal of FRET-quenched fluorescent signal (cleavage)” value in the data set with LAS-Q is on record as “ELA-Q and-to a lesser extent, LAS-Q-are each cleaved by neutrophil elastase”; in the data set with ELA-Q it was “ELA-Q and-to a lesser extent, LAS-Q-are each cleaved by neutrophil elastase”.

B2: LasA protease of Pseudomonas aeruginosa (secreted, in culture supernatants) (protein)
chain: APPSNLMQLPWRQGYSWQPNGAHSNTGSGYPYSSFDASYDWPRWGSATYSVVAAHAGTVRVLSRCQVRVTHPSGWATNYYHMDQIQVSNGQQVSADTKLGVYASNINTALCEGGSSTGPHLHFSLLYNGAFVSLQGASFGPYRINVGTSNYDNDCRRYYFYNQSAGTTHCAFRPLYNPGLAL
With B2, the “cleavage of LAS-Q by P. aeruginosa culture supernatants (fluorescence) set against LasA content by Western blot” value with LAS-Q is “the non-cleaving strains lacked LasA in their supernatant, whereas supernatant from the substrate-cleaving strains contained substantial levels of LasA protein”.
